Measurements from patent publication US20230348588A1 (published 2023).

T1: extracellular domain (ECD) of recombinant human Sortilin with a C-terminal HIS tag (ECD-huSortilin-HIS) (human, UniProt Q99523 78-755)
T1 construct: Bought (R&D Systems); also called human sortilin-ECD
T1 sequence: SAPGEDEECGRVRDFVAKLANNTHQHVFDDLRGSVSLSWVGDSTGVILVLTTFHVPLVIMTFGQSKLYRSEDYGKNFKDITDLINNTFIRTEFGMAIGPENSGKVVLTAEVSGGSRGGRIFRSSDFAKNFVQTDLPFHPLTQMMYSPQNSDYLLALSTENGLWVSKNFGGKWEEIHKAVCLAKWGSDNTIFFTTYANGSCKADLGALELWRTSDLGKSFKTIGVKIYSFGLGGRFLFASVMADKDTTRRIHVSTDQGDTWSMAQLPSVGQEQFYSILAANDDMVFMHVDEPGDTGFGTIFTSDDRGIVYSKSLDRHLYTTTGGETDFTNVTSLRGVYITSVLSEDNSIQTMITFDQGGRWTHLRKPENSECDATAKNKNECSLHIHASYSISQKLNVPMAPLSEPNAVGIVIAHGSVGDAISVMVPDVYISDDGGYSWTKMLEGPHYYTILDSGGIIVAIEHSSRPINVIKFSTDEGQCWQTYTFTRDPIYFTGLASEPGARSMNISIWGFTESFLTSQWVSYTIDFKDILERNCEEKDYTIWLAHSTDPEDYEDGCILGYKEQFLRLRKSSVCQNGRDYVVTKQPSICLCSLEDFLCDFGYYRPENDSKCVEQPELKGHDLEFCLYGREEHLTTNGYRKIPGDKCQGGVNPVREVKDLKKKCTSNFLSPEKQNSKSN


These binders were tested against T1, extracellular domain (ECD) of … (assay: SPR (Biacore T200), mAb captured on anti-mouse chip, sortilin as analyte, global 1:1 fit).
Experimental: Analysis was performed using a Biacore T200 to compare the binding affinity of murine anti-huSortilin antibodies to recombinant human Sortilin. Anti-mouse antibody was immobilized on sensor chip CM5 (GE Healthcare Life Sciences) via amine coupling, and mouse antibodies (ligand) were captured to a level to ensure a maximum binding of analyte of 50 RU (approximately 100RU of ligand binding). Various concentrations of Sortilin (ranging from 0.1 nM to 300 nM) were passed over the captured ligand at 50 µL/min in running buffer (HBS + 0.05% P-20, 1 mg/mL BSA) for 180-300 s association time and 300-900 s dissociation time. Regeneration of the chip surface was accomplished by 2 short injections of 10 mM Glycine-HCI at pH 1.7. Data was blank subtracted to both a sensor not containing ligand and 0 nM analyte concentration. Analysis was performed using a global 1:1 fit with Biacore Insight Evaluation software (v2.0) with bulk refractive index set to zero RU.

koff | kon | Binder
0.000139 s⁻¹ | 87700 M⁻¹ s⁻¹ | mouse monoclonal antibody 5E20 (antibody, V domains shown, also called murine 5E20; m5E20) VH: EVQLVESGGDLVKPGGSLKLSCAAPGFTFSTYGMSWVRQTPDKRLEWVAIISSGGSYTYYSDTVKGRFTISRDNAKNTLYLQMSSLKSEDTAMYYCSRSSSHWYFDVWGTGTTVTVSS VL: DILMTQSPSSMSVSLGDTVSITCHASQGISSNIGWLQQKPGKSFKGLIYHGTNLKDGVPSRFSGSGSGADFSLTISSLESEDFADYFCVQYAQFPYTFGGGTKLEKR
0.00245 s⁻¹ | 208000 M⁻¹ s⁻¹ | mouse monoclonal antibody 2C14 (antibody, mouse IgG1, V domains shown) VH: EVQLVESGGDLVKPGGSLKLSCAASGFTFNTHGMSWVRQTPDKSLEWVATISTGGFYTSYPDSVKGRFTISRDNAKNTLFLQMSSLKSEDTAMYYCAKSSSHWYFDVWGTGTTVTVSS VL: DILMTQSPSSMSVSLGDTVSITCHASQGISSNIGWLQQKPGKSFKGLIYHGTNLEDGVPSRFSGSGSGADYSLTISSLEYEDFADYYCVQYAHFPYTFGGGTKLEIK
0.00013 s⁻¹ | 127000 M⁻¹ s⁻¹ | mouse monoclonal antibody 6B15 (antibody, mouse IgG1, V domains shown) VH: EVQLVESGGDLVKPGGSLKLSCAAPGFTFSTYGMSWVRQTPDKRLEWVAIISSGGSYTYYSDTVKGRFTISRDNAKNTLNLQMSSLKSEDTAMYFCSRSSSHWYFDVWGTGTTVTVSS VL: DILMTQFPSSMSVSLGDTVSITCHASQGISSNIGWLQQKPGKSFKGLIYHGTNLKDGVPSRFSGSGSGTDFSLTISSLESEDFADYYCVQYAQFPYTFGGGTKLEKR
0.00044 s⁻¹ | 96600 M⁻¹ s⁻¹ | mouse monoclonal antibody 8H24 (antibody, V domains shown, also called murine 8H24; m8H24) VH: QAYLQQSGTELVRPGASVKMSCKASGYTFTSYSMHWVKQTPRQGLEWIGAIYPGNDATSYNQKFKGKATLTVDKSSSTAYMQLSSLTSEDSAVYFCAREGYYGSSFEAWFASWGQGTLVTVSA VL: DVLMTQTPLSLPVSLGDQASISCRSSQSIVHSNGNTYLEWYLQKPGQSPKLLIYKVSNRFSGVPDRFSGSGSGTDFTLKISRVEAEDLGVYYCFQGSHVLPTFGGGTKLEIK
0.000237 s⁻¹ | 108000 M⁻¹ s⁻¹ | mouse monoclonal antibody 2P22 (antibody, mouse IgG2b, V domains shown) VH: EVQLVESGGDLVKPGGSLKLSCAASGFTFSIYGMSWVRQTPDKKLEWVAAISSGGIYTYYPDSVKGRFTISRDNAKNTLYLQMSSLKSADTAMYYCTRNDYDWFAYWGQGTLVTVSA VL: DIQMTQSPSSLSASLGERVSLTCRASQDIGSSLNWLQQEPDGTIKRLIYATSSLDSGVPKRFSGSRSGSDYSLTISSLESEDFVDYYCLQYASSPYTFGGGTKLEIK
0.000569 s⁻¹ | 91100 M⁻¹ s⁻¹ | mouse monoclonal antibody 11M14 (antibody, V domains shown, also called murine 11M14; m11M14) VH: EVQLVESGGDLVKPGGSLKLSCAASGFTFNIYGMSWVRQTPDKRLEWVATISSGGIYTYYPDILKGRFTISRDNAKNTLYLQMSSLKSEDTAMYYCARHPGGAMDYWGQGTSVTVSS VL: DIQMTQSPASLSVSVGETVTITCRVSENIYSNLAWYQQKQGKSPHLLVYAATNLADGVPSRFSGSGSGTQYSLKINSLQSEDFGSYYCQHFWGTPPWTFGGGTKLEIK
0.000162 s⁻¹ | 57600 M⁻¹ s⁻¹ | mouse monoclonal antibody 2F18 (antibody, mouse IgG1, V domains shown) VH: EVQLVESGGDLVKPGGSLKLSCAASGFTFNIYGMSWVRQTPDKRLEWVATISTGGIYTYYPDSVKGRFTISRDNAKNTLYLQMSSLKSEDTAMYYCARHPVGALDYWGQGTSVTVSS VL: DIQVTQSPASLSVSVGETVTITCRASENIYSNLAWYQQKQGKSPHLLVYTATTLADGVPSRFSGSGSGTQYSLKINSLQSEDFGSYYCQHFWGTPPWTFGGGTKLEIK

The binders below were run against T1, extracellular domain (ECD) of … (assay: SPR (Biacore T200), mAb captured on anti-human chip, sortilin as analyte, global 1:1 fit).
Experimental: Analysis was performed using a Biacore T200 to compare the binding affinity of chimeric and humanized antibodies to recombinant human Sortilin. Anti-Human antibody was immobilized on sensor chip CM5 (GE Healthcare Life Sciences) via amine coupling, and humanized antibodies (ligand) were captured to a level to ensure a maximum binding of analyte of 50 RU (approximately 100 RU of ligand binding). Various concentrations of Sortilin (ranging from 0.1 nM to 300 nM) were passed over the captured ligand at 50 µL/min in running buffer (HBS + 0.05% P-20, 1 mg/mL BSA) for 300 s association time and 1200 s dissociation time. Regeneration of the chip surface was accomplished by 2 short injections of 3 M MgCl. Data was blank subtracted to both a sensor not containing ligand and 0 nM analyte concentration. Analysis was performed using a global 1:1 fit with Biacore Insight Evaluation software (v2.0) with bulk refractive index set to zero RU.

koff | kon | Binder
0.000396 s⁻¹ | 597000 M⁻¹ s⁻¹ | chimeric 5E20 (antibody, human IgG1, kappa, L234A L235A, V domains shown) VH: EVQLVESGGDLVKPGGSLKLSCAAPGFTFSTYGMSWVRQTPDKRLEWVAIISSGGSYTYYSDTVKGRFTISRDNAKNTLYLQMSSLKSEDTAMYYCSRSSSHWYFDVWGTGTTVTVSS VL: DILMTQSPSSMSVSLGDTVSITCHASQGISSNIGWLQQKPGKSFKGLIYHGTNLKDGVPSRFSGSGSGADFSLTISSLESEDFADYFCVQYAQFPYTFGGGTKLEIKR
0.0025 s⁻¹ | – | hu8H24VHv2/hu8H24VLv2 (antibody, V domains shown, Humanized variable regions; also called 8H24H2L2) VH: QAQLVQSGAEVVKPGSSVKVSCKASGYTFTSYSMHWVRQAPGQGLEWIGAIYPGNDATSYNQKFKGRATLTVDKSTSTAYMELSSLRSEDTAVYFCAREGYYGSSFEAWFASWGQGTTVTVSS VL: DVVMTQTPSSLPVTPGEPASISCRSSQSIVHSNGNTYLEWYLQKPGQSPQLLIYKVSNRFSGVPDRFSGSGSGTDFTLTISRVEAEDVGVYYCFQGSHVLPTFGGGTKVEIK
0.00257 s⁻¹ | – | hu8H24VHv2/hu8H24VLv1 (antibody, V domains shown, Humanized variable regions; also called 8H24H2L1) VH: QAQLVQSGAEVVKPGSSVKVSCKASGYTFTSYSMHWVRQAPGQGLEWIGAIYPGNDATSYNQKFKGRATLTVDKSTSTAYMELSSLRSEDTAVYFCAREGYYGSSFEAWFASWGQGTTVTVSS VL: DVVMTQTPLSLPVTPGEPASISCRSSQSIVHSNGNTYLEWYLQKPGQSPQLLIYKVSNRFSGVPDRFSGSGSGTDFTLKISRVEAEDVGVYYCFQGSHVLPTFGGGTKVEIK
0.000969 s⁻¹ | 384000 M⁻¹ s⁻¹ | chimeric 11M14 (antibody, human IgG1, kappa, L234A L235A, V domains shown) VH: EVQLVESGGDLVKPGGSLKLSCAASGFTFNIYGMSWVRQTPDKRLEWVATISSGGIYTYYPDILKGRFTISRDNAKNTLYLQMSSLKSEDTAMYYCARHPGGAMDYWGQGTSVTVSS VL: DIQMTQSPASLSVSVGETVTITCRVSENIYSNLAWYQQKQGKSPHLLVYAATNLADGVPSRFSGSGSGTQYSLKINSLQSEDFGSYYCQHFWGTPPWTFGGGTKLEIKR
